These results are taken from article PMC3137230 (ACS Chemical Biology, 2011).

The data set deals with the molecule itself. In words: crystal structure.

B1: MmOmeRS, C-terminal catalytic domain (residues 185-454) of the evolved Methanosarcina mazei pyrrolysyl-tRNA synthetase (enzyme, UniProt Q8PWY1 185-454, looked up)
chain: ASAPALTKSQTDRLEVLLNPKDEISLNSGKPFRELESELLSRRKKDLQQIYAEERENYLGKLEREITRFFVDRGFLEIKSPILIPLEYIERMGIDNDTELSKQIFRVDKNFCLRPMLTPNLYNYLRKLDRALPDPIKIFEIGPCYRKESDGKEHLEEFTMLVFWQMGSGCTRENLESIITDFLNHLGIDFKIVGDSCMVFGDTLDVMHGDLELSSALVGPIPLDREWGIDKPWIGAGFGLERLLKVKHDFKNIKRAARSESYYNGISTNL
Consider B1, for which the binding result was “binds”.
